In patent US20010044102, “ASSAYS AND REAGENTS FOR IDENTIFYING MODULATORS OF CDC25-MEDIATED MITOTIC ACTIVATION” (published 2001):

B1: MB2 (A2) mutant oligo (dsDNA)
DNA 1: GCACAAGACAACTGCTTAGCAAACGGG
DNA 2: CCCGTTTGCTAAGCAGTTGTCTTGTGC
modifications: [11,12]
B2: MB3 (A3) mutant oligo (dsDNA)
DNA 1: ACTACAGACACCTGCCACCACACCCAA
DNA 2: TTGGGTGTGGTGGCAGGTGTCTGTAGT
modifications: [12]
B3: MB1 (A1) mutant oligo (dsDNA)
DNA 1: GGGCCTGCCAACTGCACCCCGCCCGGG
DNA 2: CCCGGGCGGGGTGCAGTTGGCAGGCCC
modifications: [11,12]

The binders below were run against GST-C92 Myc/Max heterodimer (UniProt P01106;P61244 P01106:363-454,P61244:1-160) (assay: competition; mutant oligo did not compete). Conditions: tags: GST on Myc C-terminal 92 aa (C92Myc).
Source text: To test whether Myc/Max complexes could efficiently bind to the isolated sites, we performed electrophoretic mobility shift assays (EMSA) on each DNA fragment, confirming that they represent functional myc-binding elements in vitro. For instance, oligonucleotides, matching the Myc binding site from F1, F2 and from the second intron of the cdc25A (MB3) were also checked by EMSA. In this case, oligonucleotides corresponding to a wild type site and a single point mutant within the consensus sequence site were used to compete with the cdc25A sites. […] Similar results were obtained for MB2 and MB3.
For the identification of the Myc/Max binding sequences within the cdc25 genomic regions we utilized an affinity chromatography procedure, similar to immunoprecipitation procedures (Okamoto et al. (1994) EMBO J. 13:4816-4822). Briefly, cdc25 (A, B and C) genomic clones were digested with the Hinfl restriction endonuclease, end-labeled with p32 and further incubated with 10 ng of the GSTC92Myc/Max complexes in the binding buffer (Ayer et al. (1993) Cell 72:211-222), followed by incubation with 20 μl of glutathione sepharose for 30 min at 4° C. Isolated complexes were washed four times in the binding buffer, eluted with proteinase K digestion, treated with phenol/chloroform and further ethanol precipitated. Precipitated material was resuspended in 10-20 μl of TE and subjected to polyacrylamide gel (PAG) electrophoresis, followed by autoradiography. Total digests were treated the same way, except affinity chromatography on the glutathione beads, and run as a control on a gel on a parallel lane with the purified material. Electrophoretic mobility shift assays (EMSA) were done either with F1 or F2 fragments or with the synthetic oligonucleotides, corresponding to MB 1, MB2 or MB3 as described in the art, c. f., Ayer et al. (1993) Cell 72:211-222. Mutant oligonucleotides correspond to the same sequence as F1 and F2 with CATGTG changed to CAACTG (for A1 and A2) or CACGTG changed to CACCTG (for A3). CM-1 oligonucleotide has been described (Ayer et al. supra).

GST-C92 Myc/Max heterodimer, sequence (P01106 363-454, chain 1 of 2): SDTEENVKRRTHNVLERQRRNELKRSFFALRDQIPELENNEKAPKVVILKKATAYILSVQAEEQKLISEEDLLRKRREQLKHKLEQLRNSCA
GST-C92 Myc/Max heterodimer, sequence (P61244 whole entry, chain 2 of 2, the tested form may be a part): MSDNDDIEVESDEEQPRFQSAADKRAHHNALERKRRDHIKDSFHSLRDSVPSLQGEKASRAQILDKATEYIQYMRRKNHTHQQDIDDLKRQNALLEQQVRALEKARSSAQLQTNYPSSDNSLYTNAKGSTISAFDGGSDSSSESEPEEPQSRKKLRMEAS

Row | Binder | binding result
1 | B1 | no binding
2 | B2 | no binding
3 | B3 | no binding
